Data published in publication PMC3793974, “Solution NMR Structure and Histone Binding of the PHD Domain of Human MLL5” (PLoS ONE, 2013).
Where no end group is shown, it is not given here. Me3 = trimethyl-lysine; Me2 = dimethyl-lysine

T1: PHD domain of human MLL5 (Ser109-Asp188) (human, UniProt Q8IZD2 109-188, 15N-labelled in the NMR titration)
T1 construct: Mixed Lineage Leukemia 5 (MLL5), human, PHD finger, residues 109-188, 80 residues; Cloned into the vector pET28a-MHL (GenBank EF456735 is the vector's id); The tag is detected with anti-His in the peptide array; also called MLL5PHD; MLL5 PHD finger; source: E. coli BL21 (DE3) Codon plus RIL, purified (Ni column, Superdex200, Source 30Q; for NMR 13C/15N-labelled from minimal media, Ni-NTA)
T1 sequence (looked up): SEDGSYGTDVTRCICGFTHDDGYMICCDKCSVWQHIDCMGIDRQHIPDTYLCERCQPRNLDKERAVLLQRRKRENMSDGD

B1: H3K4me3 peptide labelled with fluorescein (peptide)
chain: ARTK(Me3)QTARKSTGGKA
modifications: not fully specified (N-terminus); also: fluorescein label, C- or N-terminal (sources disagree)
B2: H3K4me2 peptide labelled with fluorescein (peptide)
chain: ARTK(Me2)QTARKSTGGKA
modifications: not fully specified (N-terminus); also: fluorescein label, C- or N-terminal (sources disagree)

Biological target: T1, PHD domain of human MLL5 (Ser109-Asp188)
Assay: fluorescence polarisation; 40 nM fluorescein-labelled peptide, MLL5PHD titrated (low to high micromolar); 20 mM Tris-HCl pH 7.5, 50 mM NaCl, 0.01% Triton X-100; 384-well plates
Settings: both partners purified

Binder | Kd
B1 | ~16 µM
B2 | ~16 µM
